Assay results published in patent US20020082202A1 (GlaxoSmithKline, published 2002).
No end group written: not given here.

Biological target: T1, HFGAN72 receptor (human, UniProt O43613 1-425)
T1 sequence (looked up): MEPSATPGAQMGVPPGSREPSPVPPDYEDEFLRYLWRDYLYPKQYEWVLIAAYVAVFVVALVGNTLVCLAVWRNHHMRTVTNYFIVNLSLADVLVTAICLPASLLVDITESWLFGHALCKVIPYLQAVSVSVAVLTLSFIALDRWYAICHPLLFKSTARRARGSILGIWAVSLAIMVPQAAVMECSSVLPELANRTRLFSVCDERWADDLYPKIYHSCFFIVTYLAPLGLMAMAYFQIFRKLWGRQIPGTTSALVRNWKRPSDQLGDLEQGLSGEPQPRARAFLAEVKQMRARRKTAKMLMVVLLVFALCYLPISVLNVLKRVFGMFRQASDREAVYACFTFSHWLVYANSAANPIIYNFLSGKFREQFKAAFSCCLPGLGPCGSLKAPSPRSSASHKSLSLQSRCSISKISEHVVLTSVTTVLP
Assay: cell-based or functional assay

B1: Lig 72A (HFGAN72 receptor ligand) (peptide)
peptide: QPLPDCCRQKTCSCRLYELLHGAGNHAAGILTL
modifications: cysteine pairing not given here; also: N-terminus blocked
  Intracellular calcium levels in Fura-loaded 293 cells transfected with the receptor; EC50: ~0.05 µg/mL
